Data on three substances can be found in doi:10.1101/2023.10.18.562911.

The target of test [1] is full-length GST-Rfa1 (S. cerevisiae) (UniProt P22336). Kind of test: MST.
The target in test [2] is full-length GST-yKu70 (S. cerevisiae) (UniProt P32807). Kind of test: MST.
Sequence of UniProt P32807 (P32807 whole entry): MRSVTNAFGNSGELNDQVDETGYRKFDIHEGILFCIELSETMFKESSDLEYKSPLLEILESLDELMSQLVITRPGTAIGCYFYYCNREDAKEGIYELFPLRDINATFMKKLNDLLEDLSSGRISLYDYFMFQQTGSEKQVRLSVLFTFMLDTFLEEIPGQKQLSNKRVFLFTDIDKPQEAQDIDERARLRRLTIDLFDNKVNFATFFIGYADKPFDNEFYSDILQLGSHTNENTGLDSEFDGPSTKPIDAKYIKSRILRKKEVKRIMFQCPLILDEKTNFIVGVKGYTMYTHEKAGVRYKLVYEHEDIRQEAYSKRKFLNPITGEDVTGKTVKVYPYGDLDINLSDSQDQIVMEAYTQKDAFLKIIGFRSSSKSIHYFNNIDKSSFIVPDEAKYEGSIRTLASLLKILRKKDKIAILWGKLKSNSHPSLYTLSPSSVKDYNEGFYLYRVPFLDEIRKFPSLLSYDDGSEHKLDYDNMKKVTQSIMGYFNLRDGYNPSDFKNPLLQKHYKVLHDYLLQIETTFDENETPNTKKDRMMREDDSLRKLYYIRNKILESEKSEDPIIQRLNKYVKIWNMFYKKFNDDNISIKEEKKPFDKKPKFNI

Sequence of UniProt P22336 (P22336 whole entry): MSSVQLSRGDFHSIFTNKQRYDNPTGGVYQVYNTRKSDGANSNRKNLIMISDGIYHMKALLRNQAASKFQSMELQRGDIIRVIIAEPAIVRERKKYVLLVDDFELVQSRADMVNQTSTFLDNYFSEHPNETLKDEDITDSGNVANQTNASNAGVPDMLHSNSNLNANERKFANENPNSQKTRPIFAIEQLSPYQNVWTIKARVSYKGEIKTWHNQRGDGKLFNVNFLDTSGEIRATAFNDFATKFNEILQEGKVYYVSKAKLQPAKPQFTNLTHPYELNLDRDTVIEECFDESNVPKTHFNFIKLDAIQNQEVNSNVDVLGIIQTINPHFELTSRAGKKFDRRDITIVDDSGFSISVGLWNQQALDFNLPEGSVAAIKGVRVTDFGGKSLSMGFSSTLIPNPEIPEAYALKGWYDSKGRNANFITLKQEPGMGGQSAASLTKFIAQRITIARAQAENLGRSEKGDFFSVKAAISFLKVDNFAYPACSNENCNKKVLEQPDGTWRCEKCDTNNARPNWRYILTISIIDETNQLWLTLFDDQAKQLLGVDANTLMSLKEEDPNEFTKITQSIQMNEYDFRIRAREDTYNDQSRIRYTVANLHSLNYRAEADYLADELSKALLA

Broadly, the Kd is the constant that tells how readily two partners part at equilibrium. As to “native chicken erythrocyte nucleosomes (complex)”, the values for the dissociation constant Kd in test [1] and in test [2] were 1 µM and 1.2 µM, respectively. “yeast Y149F^me3 nucleosomes (from UniProt P61830 1-136) (complex)” yielded an equilibrium dissociation constant (Kd) in test [1] of 1 µM. For “yeast Y236F^me2 nucleosomes (from UniProt P61830 1-136) (complex)”, the dissociation constant Kd in test [2] came to 1.2 µM. In other words, the single-digit micromolar range.
